Values quoted from earlier work as cited in US20240100071A1, “COMBINATION THERAPY FOR PATIENTS HAVING ACUTE AND/OR PERSISTENT DYSPNEA” (S-Form Pharma, priority 2020, published 2024).
Read-outs that look alike come from different tables or passages of the source.

Conditions: human plasma 24° C., cited from earlier work; for Average ADM recovery (N = 5): 10 ng ADM/ml; for Average loss of immune reactivity: MR-ADM/CT-ADM sandwich immune assay

Substance: Human Adrenomedullin [hADM]
- Average ADM recovery (N = 5) (0 h): 100
- Average ADM recovery (N = 5) (2 h): 99.2
- Loss of immune reactivity %/h (2 h): 0.4 %/h
- Average ADM recovery (N = 5) (4 h): 96.4
- Loss of immune reactivity %/h (4 h): 0.8 %/h
- Average ADM recovery (N = 5) (8 h): 88.2
- Loss of immune reactivity %/h (8 h): 1.5 %/h
- Average loss of immune reactivity: Average: 0.9%/h
- Average loss of immune reactivity (listed as ADM): 0.9 %/h
